Article PMC4411124

Experiments:
[1] = biological target: T1, SoxR (Stenotrophomonas maltophilia K279a) (UniProt B2FRT7); test: EMSA
T1 sequence: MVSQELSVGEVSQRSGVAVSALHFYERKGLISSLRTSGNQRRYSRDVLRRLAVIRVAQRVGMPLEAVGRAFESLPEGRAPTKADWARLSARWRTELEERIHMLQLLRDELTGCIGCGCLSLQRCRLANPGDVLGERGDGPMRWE

[2] = biological target: T1, SoxR (Stenotrophomonas maltophilia K279a); test: competition

| Sequence | binding [1] | binding [2] |
| --- | --- | --- |
| GAGGGTCGGGGTCATACGGGTCAGATGCGGGCCGCGCTTGTCAACCGACGGCGAAGATAGCAGCATGACACCTCAACTGCAGTTGAGGTCAAGCAATGGTGTCCCAGGAACTGAGCGTTGGCGAAGTCTCCCAGCGCAGTGGCGTGGCGGTTTCCGCGCTGCACTTCTACGAGCGCAAGGGGCTGATCAGCAGCCTGCGCACTTCGGGTAACCAGCGCCGCTACAGCCGCGACGTGCTGCGCCGGCTGGCGGTGATCCGC (double strand) [mfsA-soxR promoter fragment, 258 bp, wild type] | binds | binds |
| GCGGATCACCGCCAGCCGGCGCAGCACGTCGCGGCTGTAGCGGCGCTGGTTACCCGAAGTGCGCAGGCTGCTGATCAGCCCCTTGCGCTCGTAGAAGTGCAGCGCGGAAACCGCCACGCCACTGCGCTGGGAGACTTCGCCAACGCTCAGTTCCTGGGACACCATTGCTTGAAAGACCAGTACTGTGAGGTGTCATGCTGCTATCTTCGCCGTCGGTTGACAAGCGCGGCCCGCATCTGACCCGTATGACCCCGACCCTC (double strand) [mfsA-soxR promoter fragment, 258 bp, mutated SoxR box] | no binding | – |
